Test results reported in patent US6730480B1, “Sphingosine kinase enzyme” (Johnson & Johnson Pharmaceutical Research and Development …, priority 1999, dated 2004).
Changes are numbered by the printed parent chain.

What was measured:
[1] = test system: sphingosine kinase activity in HEK293 cells; experiment: Transient expression of hSK and TNFα stimulation of sphingosine kinase activity in HEK293 cells; type: cell-based, human
Protocol: (§1) Sphingosine kinase activity was routinely determined using D-erythro-sphingosine and [γ^32P]ATP as substrates, essentially as previously described (Olivera et al., 1998) with some modifications. Briefly, assays were performed by incubating samples at 37° C. for 30 min with sphingosine (100 μM stock dissolved in 5% Triton X-100) and [γ-^32P]ATP (1 mM; 10 μCi/ml) in assay buffer containing 100 mM Tris/HCl (pH 7.4), 10 mM MgCl2 10% (v/v) glycerol, 1 mM dithiothreitol, 1 mM EGTA, 1 mM Na3VO4, 15 mM NaF, 0.5 mM 4-deoxypyridoxine in a total volume of 100 μl. Reactions were terminated and sphingosine-1-phosphate extracted by the addition of 700 μl of chloroform/methanol/HCl (100:200:1. v/v), followed by vigorous mixing, addition of 200 μp of chloroform and 200 μl of 2 M KCl, and phase separation by centrifugation. The labeled S1P in the organic phase was isolated by TLC on Silica Gel 60 with 1-butanol/ethanol/acetic acid/water (8:2:1:2, v/v) and quantitated by phosphorimager (Molecular Dynamics. Sunnyvale, Calif.). One unit (U) of activity is defined as 1pmol of S1P formed per minute.
For mammalian cell expression the hSK cDNA was FLAG epitope tagged at the 3′-end by PFU polymerase PCR with oligonucleotide primers T7 and 5′-[…]-3′ [SEQ ID NO:5]. […] The orientation was determined by restriction analysis and sequencing verified the integrity of the hSK-FLAG cDNA sequence. […]

[2] = test system: sphingosine kinase activity in HUVEC; experiment: TNFα stimulation of sphingosine kinase activity in HUVEC extracts; type: cell-based, human; conditions: TNFα treated HUVEC (untreated HUVEC 78)
Protocol: as §1
Human umbilical vein endothelial cells (HUVEC) were isolated as previously described (Wall et al., 1978) and cultured on gelatin-coated culture flasks in medium M199 with Earle's salts supplemented with 20% fetal calf serum, 25 μg/ml endothelial growth supplement (Collaborative Research) and 25 μg/ml heparin. […]

[3] = substrate: CCCCCCCCCCCCC/C=C/[C@@H](O)[C@@H](N)CO; experiment: Sphingosine kinase enzyme assay with native SK purified from human placenta; type: biochemical; conditions: other: Native SK, 37.0 °C
Protocol: The substrates examined were added to a final concentration of 100 μM in 0.25% (w/v) Triton X-100, and assayed under the standard assay conditions outlined earlier.
Substrate kinetics were determined by supplying substrates over the concentration range of 0.5 to 200 μM for sphingosine analogues, and 5 to 1000 μM for ATP. Inhibition kinetics were determined by the use of inhibitors over a concentration range of 2 to 50 μM (Table 5). In both cases the data were analysed by non-linear regression.
The effect of metal ions on the activity of the native and recombinant sphingosine kinases were determined by assaying the activity under standard conditions in the presence of various metal ions or EDTA at 10 mM.

[4] = substrate: CCCCCCCCCCCCC/C=C/[C@@H](O)[C@@H](N)CO; experiment: Sphingosine kinase enzyme assay with recombinant human SK expressed in E. coli; type: biochemical; conditions: other: Recombinant SK
[5] = type: physicochemical, human; conditions: pH range 4 to 11, 50 mM buffers, 37° C.
Protocol: The effect of pH on the activity of the isolated sphingosine kinases was determined over the pH range 4.0 to 11.0 in 50 mM buffers (sodium acetate, pH 4.0-5.0; Mes, pH 6.0-7.0; Hepes, pH 7.0-8.2; Tris/HCl, pH 8.2-10.0: Caps, pH 10.0-11.0) at 37° C. pH stability was determined by assaying the residual activity after pre-incubation of the enzymes in the same buffers for 5 h at 4° C. Similarly, thermal stabilities were determined by assaying the residual activity after pre-incubation of the enzymes at various temperatures (4-80° C.) for 30 min at pH 7.4 (50 mM Tris/HCl containing 10% glycerol, 0.5 M NaCl and 0.05% Triton X-100). Substrate kinetics were analysed using Michaelis-Menten kinetics with a weighted non-linear regression program (Easterby, 1996). Since sphingosine and its analogues were added to the enzyme assays in mixed micelles with Triton X-100, where they exibit surface dilution kinetics (Buehrer and Bell. 1992), all K, and KC values obtained for these molecules were expressed as mol % of Triton X-100, rather than as bulk solution concentrations. […]
Thermal stabilities of the native and recombinant sphingosine kinases were determined by assaying the residual activity remaining after preincubation of the enzymes at various temperatures (4 to 80° C.) for 30 min at pH 7.4 (50 mM Tris/HCl containing 10% glycerol, 0.5M NaCl and 0.05% Triton X-100). […]

[6] = sphingosine supplied as a sphingosine-BSA complex
[7] = substrate kinetics, bulk solution concentration

In the case of TNFα, the “Increase in sphingosine kinase activity after TNFα treatment” value ([1]; hSK-transfected HEK293 cells, TNFα 1 ng/ml, 10 min) is reported as “approximately 2 fold” and the “Total sphingosine kinase activity in cell extract” value [2] is reported as 136 U/mg proteins.

B1: native sphingosine kinase (human placenta SK1) (Homo sapiens) (protein)
chain: MDPAGGPRGVLPRPCRVLVLLNPRGGKGKALQLFRSHVQPLLAEAEISFTLMLTERRNHARELVRSEELGRWDALVVMSGDGLMHEVVNGLMERPDWETAIQKPLCSLPAGSGNALAASLNHYAGYEQVTNEDLLTNCTLLLCRRLLSPMNLLSLHTASGLRLFSVLSLAWGFIADVDLESEKYRRLGEMRFTLGTFLRLAALRTYRGRLAYLPVGRVGSKTPASPVVVQQGPVDAHLVPLEEPVPSHWTVVPDEDFVLVLALLHSHLGSEMFAAPMGRCAAGVMHLFYVRAGVSRAMLLRLFLAMEKGRHMEYECPYLVYVPVVAFRLEPKDGKGVFAVDGELMVSEAVQGQVHPNYFWMVSGCVEPPPSWKPQQMPPPEEPL
notes: from tissue; host or cells: human placenta
In the case of B1, the kcat [3, 6] is reported as 28 s⁻¹, the Km [3, 7] is reported as 14 ± 2 µM and the kcat [3, 7] is reported as 50 s⁻¹. For the same molecule, the kcat/Km [3, 7] was 3.6e+06 M⁻¹ s⁻¹.

B2: recombinant human sphingosine kinase (Homo sapiens) (protein)
chain: B1 chain
notes: The full length SPHK cDNA cloned into pGEX4T2 was transformed into E. coli BL21; GST (N, cleaved yes); made in house; host or cells: E. coli BL21
Molecule B2 has a kcat [4, 6] of 39 s⁻¹, a Km [4, 7] of 12 ± 3 µM and a kcat [4, 7] of 85 s⁻¹. The kcat/Km [4, 7] was 7.1e+06 M⁻¹ s⁻¹.

B3: hSK: human sphingosine kinase encoded by the cloned cDNA, SEQ ID NO:2 (protein)
chain: B1 chain with V337M
With B3 the “Increase in sphingosine kinase activity on transient expression” value ([1]; HEK293 cells, pcDNA3-hSK, versus untransfected or empty vector) was 3200 fold.

B4: native sphingosine kinase: sphingosine kinase SK1 purified to homogeneity from human placenta (protein, UniProt Q9NYA1 1-384, looked up)
Sphingosine kinase 1: B1 chain
For B4, the “pH of maximum activity” value [5] was 7.4.

B5: recombinant sphingosine kinase: hSK expressed as GST fusion in E. coli BL21, thrombin-cleaved and purified (protein)
chain: B1 chain with V337M
In the case of B5, the “pH of maximum activity” value [5] is reported as 7.4.
